Literature values in patent publication US20080181869A1, “THERAPEUTICS TO FACILITATE CELL TRANSPLANTATION FOR LIVER DISEASE” (priority 2006, published 2008).

Key:
[1] = test system: lung fibroblasts; conditions: in vitro
[2] = test system: gene for TGF-β1; conditions: bleomycin-induced model of lung fibrosis, exogenous interferon-γ
[3] = test system: hepatic stellate cells (HSCs); conditions: rat CCl4 model of liver damage
[4] = test system: rat model of hypertension
[5] = in vivo
[6] = test system: CCl4-exposed rats
[7] = test system: HSC
[8] = test system: liver; conditions: after hepatic resection
[9] = test system: tumor cell; conditions: in vitro or in vivo studies

Molecule: interferon-γ: interferon that inhibits proliferation of lung fibroblasts
- proliferation of lung fibroblasts [1]: inhibits the proliferation of lung fibroblasts in a dose-dependent manner
- synthesis of protein in fibroblasts [1]: reduces the synthesis of protein in fibroblasts
- transcription of the gene for TGF-β1 [2]: down-regulated

Molecule: relaxin
- collagen deposition by hepatic stellate cells [3]: inhibit collagen deposition
- cardiac and renal fibrosis [4]: reversing cardiac and renal fibrosis
- adverse events [5]: few adverse events

B1: follistatin: peptide inhibitor of Activin A, a member of the transforming growth factor-beta superfamily (protein, UniProt P19883 30-344, looked up)
Follistatin: GNCWLRQAKNGRCQVLYKTELSKEECCSTGRLSTSWTEEDVNDNTLFKWMIFNGGAPNCIPCKETCENVDCGPGKKCRMNKKNKPRCVCAPDCSNITWKGPVCGLDGKTYRNECALLKARCKEQPELEVQYQGRCKKTCRDVFCPGSSTCVVDQTNNAYCVTCNRICPEPASSEQYLCGNDGVTYSSACHLRKATCLLGRSIGLAYEGKCIKAKSCEDIQCTGGKKCLWDFKVGRGRCSLCDELCPDSKSDEPVCASDNATYASECAMKEAACSSGVLLEVKHSGSCNSISEDTEEEEEDEDQDYSFPISSILEW
- reduction in fibrosis ([6]; CCl4-exposed rats treated with the peptide): 32%
- decrease in hepatocyte apoptosis ([6]; CCl4-exposed rats, during treatment): 87%
- time of maximal effect on hepatocyte apoptosis ([6]; week of follistatin treatment): 4 week
- TGF-β-induced secretion of collagen from HSC [7]: inhibit TGF-β-induced secretion of collagen
- liver weight [8]: significantly increases liver weight
- tumor cell growth [9]: did not accelerate tumor cell growth
